# From patent US20140087995A1 (published 2014)
# Numbered stars: 1 amine (or outer) side, 2 acyl side, 3 side chain; on linkers, the order of the positions; unused ones are H or OH. Bridge positions count the residues as written; N and C are the ends. Side chains are listed from the residue outwards. Ends that are not written are not given here. * marks the point of attachment. C20 diacid = O=C(O)CCCCCCCCCCCCCCCCCCC(=O)*; γGlu = O=C(O)[C@H](CCC(=O)[*:2])N[*:1]; AEEA = NCCOCCOCC(=O)O
# T1: human calcitonin receptor (human, UniProt P30988 25-474)
# T1 construct: whole, on cells; Assay used cell membranes, not intact cells; also called hCTR; hCT
# T1 sequence (looked up): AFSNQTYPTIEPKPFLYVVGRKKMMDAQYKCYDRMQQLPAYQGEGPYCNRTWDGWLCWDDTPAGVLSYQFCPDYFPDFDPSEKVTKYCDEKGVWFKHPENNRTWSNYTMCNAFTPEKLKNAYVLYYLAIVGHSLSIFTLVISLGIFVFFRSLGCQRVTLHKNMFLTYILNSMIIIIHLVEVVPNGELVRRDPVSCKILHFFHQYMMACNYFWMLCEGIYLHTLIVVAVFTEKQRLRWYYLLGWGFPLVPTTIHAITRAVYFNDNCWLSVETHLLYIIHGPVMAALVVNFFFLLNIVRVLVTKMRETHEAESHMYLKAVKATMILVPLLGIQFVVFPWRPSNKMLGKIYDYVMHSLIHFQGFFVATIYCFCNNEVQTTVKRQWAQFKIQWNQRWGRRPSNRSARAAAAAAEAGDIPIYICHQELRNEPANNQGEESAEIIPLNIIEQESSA
# T2: human amylin receptor (amylin 3(a) receptor: human calcitonin receptor with RAMP-3) (human, UniProt P30988 25-474; O60896 24-148)
# T2 construct: whole, on cells; Assay used cell membranes of the Amylin 3(a)/CRE-luc BHK cells, not intact cells; also called hAmylin-R; hAmylinR
# T2 sequence (looked up) 1: T1 sequence (looked up)
# T2 sequence (looked up) 2: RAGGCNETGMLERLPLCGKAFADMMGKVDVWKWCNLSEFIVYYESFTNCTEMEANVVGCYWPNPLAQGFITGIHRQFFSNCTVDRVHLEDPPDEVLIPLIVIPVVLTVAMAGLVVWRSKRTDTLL
# B1: N^ε1-[2-[2-[2-[[2-[2-[2-[[(4S)-4-carboxy-4-(19-carboxynonadecanoylamino)butanoyl]amino]ethoxy]ethoxy]acetyl]amino]ethoxy]ethoxy]acetyl]-[Arg17,Pro21,Pro27,Pro31 … (peptide)
# peptide: K([AEEA-AEEA-γGlu-C20 diacid])CNTATCATQRLANFLRHSSPNFGAIPSSTPVGSNTY-NH2
# modifications: disulfide 2-7; N-terminus assumed
# SMILES: CC[C@H](C)[C@H](NC(=O)[C@H](C)NC(=O)CNC(=O)[C@H](Cc1ccccc1)NC(=O)[C@H](CC(N)=O)NC(=O)[C@@H]1CCCN1C(=O)[C@H](CO)NC(=O)[C@H](CO)NC(=O)[C@H](Cc1c[nH]cn1)NC(=O)[C@H](CCCNC(=N)N)NC(=O)[C@H](CC(C)C)NC(=O)[C@H](Cc1ccccc1)NC(=O)[C@H](CC(N)=O)NC(=O)[C@H](C)NC(=O)[C@H](CC(C)C)NC(=O)[C@H](CCCNC(=N)N)NC(=O)[C@H](CCC(N)=O)NC(=O)[C@@H](NC(=O)[C@H](C)NC(=O)[C@@H]1CSSC[C@H](NC(=O)[C@@H](N)CCCCNC(=O)COCCOCCNC(=O)COCCOCCNC(=O)CC[C@H](NC(=O)CCCCCCCCCCCCCCCCCCC(=O)O)C(=O)O)C(=O)N[C@@H](CC(N)=O)C(=O)N[C@@H]([C@@H](C)O)C(=O)N[C@@H](C)C(=O)N[C@@H]([C@@H](C)O)C(=O)N1)[C@@H](C)O)C(=O)N1CCC[C@H]1C(=O)N[C@@H](CO)C(=O)N[C@@H](CO)C(=O)N[C@H](C(=O)N1CCC[C@H]1C(=O)N[C@H](C(=O)NCC(=O)N[C@@H](CO)C(=O)N[C@@H](CC(N)=O)C(=O)N[C@H](C(=O)N[C@@H](Cc1ccc(O)cc1)C(N)=O)[C@@H](C)O)C(C)C)[C@@H](C)O
# notes: also called compound 96
# B2: N^ε1-[2-[2-[2-[[(4S)-4-carboxy-4-(19-carboxynonadecanoylamino)butanoyl]amino]ethoxy]ethoxy]acetyl]-[Arg17,Pro21,Pro27,Arg34]-h-amylin (peptide)
# peptide: K([AEEA-γGlu-C20 diacid])CNTATCATQRLANFLRHSSPNFGAIPSSTNVGRNTY-NH2
# modifications: disulfide 2-7; N-terminus assumed
# SMILES: CC[C@H](C)[C@H](NC(=O)[C@H](C)NC(=O)CNC(=O)[C@H](Cc1ccccc1)NC(=O)[C@H](CC(N)=O)NC(=O)[C@@H]1CCCN1C(=O)[C@H](CO)NC(=O)[C@H](CO)NC(=O)[C@H](Cc1c[nH]cn1)NC(=O)[C@H](CCCNC(=N)N)NC(=O)[C@H](CC(C)C)NC(=O)[C@H](Cc1ccccc1)NC(=O)[C@H](CC(N)=O)NC(=O)[C@H](C)NC(=O)[C@H](CC(C)C)NC(=O)[C@H](CCCNC(=N)N)NC(=O)[C@H](CCC(N)=O)NC(=O)[C@@H](NC(=O)[C@H](C)NC(=O)[C@@H]1CSSC[C@H](NC(=O)[C@@H](N)CCCCNC(=O)COCCOCCNC(=O)CC[C@H](NC(=O)CCCCCCCCCCCCCCCCCCC(=O)O)C(=O)O)C(=O)N[C@@H](CC(N)=O)C(=O)N[C@@H]([C@@H](C)O)C(=O)N[C@@H](C)C(=O)N[C@@H]([C@@H](C)O)C(=O)N1)[C@@H](C)O)C(=O)N1CCC[C@H]1C(=O)N[C@@H](CO)C(=O)N[C@@H](CO)C(=O)N[C@H](C(=O)N[C@@H](CC(N)=O)C(=O)N[C@H](C(=O)NCC(=O)N[C@@H](CCCNC(=N)N)C(=O)N[C@@H](CC(N)=O)C(=O)N[C@H](C(=O)N[C@@H](Cc1ccc(O)cc1)C(N)=O)[C@@H](C)O)C(C)C)[C@@H](C)O
# notes: also called compound 78
# B3: N^ε1-[2-[2-[2-[[(4S)-4-carboxy-4-(19-carboxynonadecanoylamino)butanoyl]amino]ethoxy]ethoxy]acetyl]-[Arg14,Arg17,Pro21,Pro27]-h-amylin (peptide)
# peptide: K([AEEA-γGlu-C20 diacid])CNTATCATQRLARFLRHSSPNFGAIPSSTNVGSNTY-NH2
# modifications: disulfide 2-7; N-terminus assumed
# SMILES: CC[C@H](C)[C@H](NC(=O)[C@H](C)NC(=O)CNC(=O)[C@H](Cc1ccccc1)NC(=O)[C@H](CC(N)=O)NC(=O)[C@@H]1CCCN1C(=O)[C@H](CO)NC(=O)[C@H](CO)NC(=O)[C@H](Cc1c[nH]cn1)NC(=O)[C@H](CCCNC(=N)N)NC(=O)[C@H](CC(C)C)NC(=O)[C@H](Cc1ccccc1)NC(=O)[C@H](CCCNC(=N)N)NC(=O)[C@H](C)NC(=O)[C@H](CC(C)C)NC(=O)[C@H](CCCNC(=N)N)NC(=O)[C@H](CCC(N)=O)NC(=O)[C@@H](NC(=O)[C@H](C)NC(=O)[C@@H]1CSSC[C@H](NC(=O)[C@@H](N)CCCCNC(=O)COCCOCCNC(=O)CC[C@H](NC(=O)CCCCCCCCCCCCCCCCCCC(=O)O)C(=O)O)C(=O)N[C@@H](CC(N)=O)C(=O)N[C@@H]([C@@H](C)O)C(=O)N[C@@H](C)C(=O)N[C@@H]([C@@H](C)O)C(=O)N1)[C@@H](C)O)C(=O)N1CCC[C@H]1C(=O)N[C@@H](CO)C(=O)N[C@@H](CO)C(=O)N[C@H](C(=O)N[C@@H](CC(N)=O)C(=O)N[C@H](C(=O)NCC(=O)N[C@@H](CO)C(=O)N[C@@H](CC(N)=O)C(=O)N[C@H](C(=O)N[C@@H](Cc1ccc(O)cc1)C(N)=O)[C@@H](C)O)C(C)C)[C@@H](C)O
# notes: also called compound 82
# Molecular target: T1, human calcitonin receptor
# Assay: ratio IC50 hCTR / IC50 hAmylin-R (reference: human amylin receptor), SPA competition assays
# Experimental: The resulting pellet was resuspended, homogenized and centrifuged (20.000 rpm, 15 min) in a buffer containing 20 mM Na-HEPES and 0.1 mM EDTA (pH 7.4, buffer 2). The resulting pellet was resuspended in buffer 2 and protein concentration was measured (BCA protein Assay, Pierce). The homogenate was kept cold during the whole procedure. The membranes were kept at −80° C. until use. The assay was performed in a 384 well Optiplate (PerkinElmer) in a total volume of 40 ul. Membranes were mixed with SPA beads. Final concentration of membranes 35 ng/μL final and SPA beads was 0.05 mg/well. Test-compounds were dissolved in DMSO and further diluted in assay buffer (50 mM Hepes, pH 7.4, 1 mM CaCl2, 5 mM MgCl₂, 0.1% OA and 0.02% Tween20). […] The final mixture was incubated with shaking at 400 rpm for 120 min at 25° C. prior to centrifugation (1500 rpm, 10 min). Samples were analyzed on TopCounter™ (Packard). The IC₅₀ was calculated using (one site binding competition analysis) GraphPad Prism5 as a measure of receptor affinity.
# Membranes were prepared in the following way; the cells were rinsed with PBS and incubated with Versene for approximately 5 min before harvesting. The cells were flushed with PBS and the cell-suspension was centrifuged for 5 min at 1000 rpm. Cells were homogenized (Ultrathurrax) in a buffer containing 20 mM Na-HEPES and 10 mM EDTA (pH 7.4) and centrifuged at 20.000 rpm for 15 min. The resulting pellet was resuspended, homogenized and centrifuged (20.000 rpm, 15 min) in a buffer containing 20 mM Na-HEPES and 0.1 mM EDTA (pH 7.4, buffer 2). The resulting pellet was resuspended in buffer 2 and protein concentration was measured (BCA protein Assay, Pierce). The homogenate was kept cold during the whole procedure. The membranes were kept at −80° C. until use. Assay was performed in a 384 well Optiplate (PerkinElmer) in a total volume of 40 ul. Membranes were mixed with SPA beads.
row,Ratio hCT/hAmylin binding,Binder
1,79.6,B1
2,60.7,B2
3,140,B3

# Molecular target: T2, human amylin receptor (amylin 3(a) …)
# Assay: SPA competition with 125I-rat amylin on membranes of BHK cells with human calcitonin receptor and RAMP-3 (Assay V)
# Experimental: The binding assay was performed using scintillation proximity assay (SPA) beads (RPNQ0001) from PerkinElmer and cell membranes from the Amylin 3(a)/CRE-luc cells (as described in Assay (II)) were used. Membranes were prepared in the following way; the cells were rinsed with PBS and incubated with Versene for approximately 5 min before harvesting. The cells were flushed with PBS and the cell-suspension was centrifuged for 5 min at 1000 rpm. Cells were homogenized (ultrathurrax) in a buffer containing 20 mM Na-HEPES and 10 mM EDTA (pH 7.4) and centrifuged at 20.000 rpm for 15 min. The resulting pellet was resuspended, homogenized and centrifuged (20.000 rpm, 15 min) in a buffer containing 20 mM Na-HEPES and 0.1 mM EDTA (pH 7.4, buffer 2). The resulting pellet was resuspended in buffer 2 and protein concentration was measured (BCA protein Assay, Pierce). The homogenate was kept cold during the whole procedure. The membranes were kept at −80° C. until use. The assay was performed in a 384 well Optiplate (PerkinElmer) in a total volume of 40 ul. Membranes were mixed with SPA beads. Final concentration of membranes 35 ng/μL final and SPA beads was 0.05 mg/well. Test-compounds were dissolved in DMSO and further diluted in assay buffer (50 mM Hepes, pH 7.4, 1 mM CaCl2, 5 mM MgCl₂, 0.1% OA and 0.02% Tween20). […] The final mixture was incubated with shaking at 400 rpm for 120 min at 25° C. prior to centrifugation (1500 rpm, 10 min). Samples were analyzed on TopCounter™ (Packard). The IC₅₀ was calculated using (one site binding competition analysis) GraphPad Prism5 as a measure of receptor affinity.
row,IC50 [nM],Binder
1,0.166,B1
2,0.602,B2
3,0.636,B3

# Molecular target: T1, human calcitonin receptor
# Assay: SPA competition with 125I-calcitonin on membranes of BHK cells with human calcitonin receptor (Assay VII)
# Experimental: Membranes were prepared in the following way; the cells were rinsed with PBS and incubated with Versene for approximately 5 min before harvesting. The cells were flushed with PBS and the cell-suspension was centrifuged for 5 min at 1000 rpm. Cells were homogenized (Ultrathurrax) in a buffer containing 20 mM Na-HEPES and 10 mM EDTA (pH 7.4) and centrifuged at 20.000 rpm for 15 min. The resulting pellet was resuspended, homogenized and centrifuged (20.000 rpm, 15 min) in a buffer containing 20 mM Na-HEPES and 0.1 mM EDTA (pH 7.4, buffer 2). The resulting pellet was resuspended in buffer 2 and protein concentration was measured (BCA protein Assay, Pierce). The homogenate was kept cold during the whole procedure. The membranes were kept at −80° C. until use. Assay was performed in a 384 well Optiplate (PerkinElmer) in a total volume of 40 ul. Membranes were mixed with SPA beads. Final concentration of membranes 35 ng/μL final and Final concentration of SPA beads was 0.05 mg/well. Test-compounds were dissolved in DMSO and further diluted in assay buffer (50 mM Hepes, pH 7.4, 1 mM CaCl2, 5 mM MgCl₂, 0.1% OA and 0.02% Tween20). […] The final mixture was incubated for 120 min with shaking at 400 rpm at 25° C. prior to centrifugation (1500 rpm, 10 min). Samples were analyzed on TopCounter™ (Packard). The […] was calculated using (one site binding competition analysis) GraphPad Prism5 as a measure of receptor affinity.
row,IC50 [nM],Binder
1,13.2,B1
2,36.5,B2
3,88.8,B3
